The values that follow are results of earlier work, collected in publication PMC4072394.

One data set deals with Asp299. Put plainly: UV-vis. Particulars: detergent-solubilised, unphotolysed (ground) state with protonated Schiff base.
For a further data set, the system named is Glu169. Kind of data set: UV-vis. Particulars: detergent-solubilised, unphotolysed (ground) state with protonated Schiff base.

For “Channelrhodopsin-1 (CaChR1) (Chlamydomonas augustae)”, the pKa entry in the data set with Asp299 is “near 5”; in the data set with Glu169, “near 9”.
